How the values were obtained:
Experiment in all cases: EMSA
Mfd D7AAA = Mfd D7AAA (Escherichia coli, UniProt P30958 1-1148, E1045A;D1048A;R1049A)
Mfd WA550 RA953 = Mfd WA550 RA953 (Escherichia coli, UniProt P30958 1-1148, W550A;R953A)
Mfd RA953 = Mfd RA953 (Escherichia coli, UniProt P30958 1-1148, R953A)
Mfd WA550 = Mfd WA550 (Escherichia coli, UniProt P30958 1-1148, W550A)

B1: 50 bp oligonucleotide duplex (dsDNA)
DNA 1: CTCATACGACGCTGTCGATCCAGTCACTGTCATGCGCTATCCGATCCTAG
DNA 2: CTAGGATCGGATAGCGCATGACAGTGACTGGATCGACAGCGTCGTATGAG
- binding result (Mfd D7AAA): binds
- binding result (Mfd WA550 RA953): no binding
- binding result (Mfd RA953): binds
- binding result (Mfd WA550): binds
